The target of data set [1] is T1, SpCas9 (Streptococcus pyogenes, UniProt Q99ZW2 Q99ZW2:1-1368). The experiment in a line: EMSA; 5x molar Cas9 shifted nanoparticle band into the well. The conditions noted are these: sgRNA whose 3' extension hybridises to DNA scaffold. The method, then: The DNA was amplified and purified by Qiagen, and transcribed using the NEB T7 HiScribe kit modified for short RNA production, and purified by PAGE purification. It was then folded with 50 mM HEPES-KOH pH 7.5, 300 mM KCl following the RNA/DNA hybrid folding protocol. The excess staples were purified away from the PB84 with a 100 kDa MWCO filter. A 2% high resolution agarose gel with 1×TAE buffer and 4 mM Mg-acetate was run at 4 C in the cold room at 65V for 180 minutes.
It was observed that the nanoparticle with the RNA staple presented a band at the same size as the all-DNA staple nanoparticle.

For data set [2], the target named is T1, SpCas9. The experiment in a line: EMSA; DX tile band shifted toward well on annealing with Cas9; sgRNA maintained after RNase H. Conditions: sgRNA fused to central RNA staple of DX tile. The method, then: Dx-tiles were made either containing the Gint or broccoli aptamers. To prepare the folded DX-tiles, the components (e.g., DNA scaffold, two flanking/end staples encoding either the Gint (i.e., Gint4.T and Gint21.T) or broccoli aptamers, and central staple) were mixed in equimolar concentrations and allowed to anneal over 2 hours from 95 C to 25 C. The resulting structures were visualized by gel electrophoresis.
Several bands were originally visualized, showing impurities in the production. […] Given that staple 2 spans across the region targeted by the sgRNA and could therefore contribute to misfolding, in a repeat experiment, staple 2 was left out of the folding mixture. This yielded higher folding. Upon addition and annealing with Cas9, the DX tile band was closer to the well on the gel. Addition of RNase H both with and without Cas9 released the HDR template.
In general terms: A gel shift assay detects complexes by their altered migration in electrophoresis.

The text below walks through data of patent publication US20210317479, “NUCLEIC ACID ASSEMBLIES FOR USE IN TARGETED DELIVERY” (The Broad Institute, Inc., published 2021).

T1 sequence (Q99ZW2 whole entry, one chain of several): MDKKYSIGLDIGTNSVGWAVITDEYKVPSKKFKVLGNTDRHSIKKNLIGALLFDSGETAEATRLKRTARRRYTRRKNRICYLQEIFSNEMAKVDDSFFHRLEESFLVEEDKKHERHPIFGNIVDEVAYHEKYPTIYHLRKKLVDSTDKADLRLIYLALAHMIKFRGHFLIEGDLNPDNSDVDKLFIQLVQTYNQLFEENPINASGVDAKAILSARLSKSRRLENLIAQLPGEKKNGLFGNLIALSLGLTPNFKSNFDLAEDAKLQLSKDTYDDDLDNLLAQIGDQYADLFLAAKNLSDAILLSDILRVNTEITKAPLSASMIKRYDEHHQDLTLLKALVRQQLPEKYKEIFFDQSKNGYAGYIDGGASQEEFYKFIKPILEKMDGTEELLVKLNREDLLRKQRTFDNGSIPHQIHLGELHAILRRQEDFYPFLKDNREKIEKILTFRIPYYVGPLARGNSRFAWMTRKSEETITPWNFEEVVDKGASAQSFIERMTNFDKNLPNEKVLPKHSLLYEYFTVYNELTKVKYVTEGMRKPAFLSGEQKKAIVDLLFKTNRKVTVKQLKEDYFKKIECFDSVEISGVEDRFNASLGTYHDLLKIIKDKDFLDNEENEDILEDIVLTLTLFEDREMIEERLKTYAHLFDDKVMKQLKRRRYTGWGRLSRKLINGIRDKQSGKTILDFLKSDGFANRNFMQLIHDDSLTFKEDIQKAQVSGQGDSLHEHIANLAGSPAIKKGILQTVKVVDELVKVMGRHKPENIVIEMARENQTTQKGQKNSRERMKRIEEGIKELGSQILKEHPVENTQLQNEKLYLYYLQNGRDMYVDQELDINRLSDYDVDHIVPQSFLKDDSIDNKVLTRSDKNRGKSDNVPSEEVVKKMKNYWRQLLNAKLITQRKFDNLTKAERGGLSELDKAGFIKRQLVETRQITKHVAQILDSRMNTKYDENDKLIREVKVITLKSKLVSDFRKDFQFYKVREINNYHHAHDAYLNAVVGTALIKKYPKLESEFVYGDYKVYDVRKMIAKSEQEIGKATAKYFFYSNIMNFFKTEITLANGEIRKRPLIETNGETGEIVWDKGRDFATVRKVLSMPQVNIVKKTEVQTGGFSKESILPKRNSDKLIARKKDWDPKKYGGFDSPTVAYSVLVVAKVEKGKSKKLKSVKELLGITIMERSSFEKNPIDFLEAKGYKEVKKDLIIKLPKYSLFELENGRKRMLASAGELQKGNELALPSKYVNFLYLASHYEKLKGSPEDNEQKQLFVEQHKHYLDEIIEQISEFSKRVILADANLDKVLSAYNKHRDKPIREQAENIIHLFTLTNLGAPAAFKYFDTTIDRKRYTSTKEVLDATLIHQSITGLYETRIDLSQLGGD

B1: PCSK9 sgRNA with 3' staple extension (PB84), folded in DNA pentagonal bipyramid (ssRNA)
RNA: GGCUGAUGAGGCCGCACAUGGUUUUAGAGCUAUGCUGUUCUUCGGAACAGCAUAGCAAGUUAAAAUAAGGCUAGUCCGUUAUCAACUUGAAAAAGUGGCACCGAGUCGGUGCAAAAAUCACCCAGAAACGCUGGUGAAAGUGUAUGAGUAUUCAACAUUUCCGUGUCGCCCUUGUUUUUGCUGCAG
As to B1, in data set [1], the binding result was “binds”.

B2: EGFP sgRNA-staple 3, in DX tile with HDR DNA scaffold (ssRNA)
RNA: GCUGAAGCACUGCACGCCGUGUUUUAGAGCUAUGCUGUUGAAAAACAGCAUAGCAAGUUAAAAUAAGGCUAGUCCGUUAUCAACUUGAAAAAGUGGCACCGAGUCGGUGCUUUUUCUGGCCCACCCUCAGCCGCUACCCCGACCACAUGAGCCCGUGCC
With B2, the binding result in data set [2] was “binds”.
